Laboratory results taken from patent publication US20150218243A1 (SAMSUNG ELECTRONICS, published 2015).

Target: T1, recombinant full length Human Cdk6 (amino acids 1-326) with N-terminal His tag (Abcam ab84717) (human, UniProt Q00534 1-326)
T1 construct: range 1-326; Bought protein, coated on the ELISA plate at 1 ug/ml; also called Cdk6 protein; not shown: N-terminal His tag of the bought protein
Experiment: ELISA, Cdk6 coated on plate, p15 variant at 0-10 uM, anti-GST primary and HRP secondary antibody, absorbance 450 nm

T1 sequence (Q00534 whole entry, the tested form may be a part): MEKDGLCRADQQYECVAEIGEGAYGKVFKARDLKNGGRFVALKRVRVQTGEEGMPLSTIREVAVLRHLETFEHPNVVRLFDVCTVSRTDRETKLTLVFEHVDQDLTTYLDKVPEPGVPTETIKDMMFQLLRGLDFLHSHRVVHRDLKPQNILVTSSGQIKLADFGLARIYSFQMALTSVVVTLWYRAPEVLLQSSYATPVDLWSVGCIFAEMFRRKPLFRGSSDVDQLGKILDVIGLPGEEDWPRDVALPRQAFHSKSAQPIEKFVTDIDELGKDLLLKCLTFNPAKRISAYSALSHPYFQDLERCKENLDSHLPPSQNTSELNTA

B1: human p15 protein variant (SEQ ID NO: 2) (other)
chain: MREENKGMPSGGGSDEGLASAAARGLVEKVRQLLEAGADPNGVNRFGRRAIQVMMMGSARVAELLLKHGAEPNSADPATSTRPVHDAAREGFLDTLVVLHRAGARLDARDAWGRTPVDLAEERGHRDVAGYLRTATGD
notes: Expressed in E. coli from pET21b (NdeI/XhoI) and purified on a HisTrap column and by SEC; also called mt p15; p15INK4b variant
binding result: binds
